# Measurements reported in patent US10287354 (Novartis, dated 2019).
# Changes are numbered by the printed parent chain.
# B1: His-FLAG-FRB (wild-type FRB) (other)
# chain: MGHHHHHHHHGSDYKDDDDKGSASRILWHEMWHEGLEEASRLYFGERNVKGMFEVLEPLHAMMERGPQTLKETSFNQAYGRDLMEAQEWCRKYMKSGNVKDLTQAWDLYYHVFRRISKTS
# notes: also called wild type Flag-FRB
# B2: His-FLAG-FRB T2098L (other)
# chain: B1 chain with T103L
# notes: The entry already carries the mutation
# B3: His-FLAG-FRB E2032L (other)
# chain: B1 chain with E37L
# notes: as for B2
# B4: His-FLAG-FRB E2032I (other)
# chain: B1 chain with E37I
# notes: as for B2
# Experiments:
# [1] = biological target: T1, His-Avidin-FKBP (wild-type FKBP) (biotinylated); experiment: AlphaLISA direct binding assay: 30 nM FLAG-FRB and 30 nM biotinylated FKBP, everolimus titrated 1:3 from 600 nM (EC50 is of everolimus)
# T1 construct: also called biotinylated wild-type FKBP; biotinylated FKBP
# T1 sequence (chain, as listed by the source limits assumed): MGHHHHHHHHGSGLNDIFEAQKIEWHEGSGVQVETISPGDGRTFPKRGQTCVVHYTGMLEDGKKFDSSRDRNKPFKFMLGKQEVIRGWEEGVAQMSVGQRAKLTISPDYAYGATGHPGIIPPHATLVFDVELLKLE
# Experimental: (§1) FRB mutations were also ranked in an alternative assay format. […] All dilutions were made in 1× AlphaLISA Immunoassay buffer (PerkinElmer). Anti-Flag acceptor beads (PerkinElmer) were added at 10 ug/ml final concentration and incubated for one hour at room temperature. Streptavidin donor beads (PerkinElmer), were then added at a final concentration of 40 ug/ml and the plate was protected from light and incubated for 30 minutes at room temperature. The plate was then read on the PerkinElmer EnVision Multiplate reader equipped with the Alpha Module using excitation of 680 nm and a 570 nm Emission filter.
# [2] = biological target: T1, His-Avidin-FKBP (wild-type FKBP); experiment: AlphaLISA direct binding assay, EC50 relative to wild type FLAG-FRB
# Experimental: as §1
binder,measurement,setting,value
B1,EC50,[1],3.9 nM
B2,EC50,[1],1.44 nM
same,fold improvement over wild type FRB,[2],3 fold
B3,EC50,[1],2.15 nM
same,fold improvement over wild type FRB,[2],1.5 to 2 fold
B4,EC50,[1],2.46 nM
same,fold improvement over wild type FRB,[2],1.5 to 2 fold
